# Like-named read-outs stand apart in the source and are kept apart here.
# System: MBP::P1 (Wheat streak mosaic virus (isolate Sidney 81))
# Test: EMSA
Substance,K half (5' phosphate) [nmol],K half [nmol]
21-nt GFP ds-siRNA,0.03,
24-nt GFP ds-siRNA,0.03,
180-nt GFP dsRNA,,0.03

# — PMC6563293
